The RNAGym collection of RNA variant scans (doi:10.1073/pnas.2313332121)
Variants at the floor of the assay were thinned out.

B1: TPR 5TU (parent)
chain: GGAUCUUCUCGAUCUAACAAAAAAGACAAAUCUGCCACAAAGCUUGAGAGCAUCUUCGGAUGCAGAGGCGGCAGCCUUCGGUGGCGCGAUAGCGCCAACGUUCUCAACUAUGACACGCAAAACGCGUGCUCCGUUGAAUGGAGUUUAUCAUG

Variants of: B1
Test: polymerase ribozyme fitness, log enrichment relative to wild type (log ratio); higher = more active; in vitro selection for triplet polymerase activity
Summary of the method: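 Only genotypes with ≥10 input reads and ≥1 read per output were kept after Illumina sequencing of input and output libraries. These libraries were PCR-built, transcribed mutants of each subunit of a heterodimeric triplet polymerase ribozyme, each put through one triplicate in vitro selection round with frozen incubation at −7 °C, gel excision of extended constructs, streptavidin-bead capture and RT-PCR. Fitness is a logarithmic ratio of genotype enrichment to wild-type enrichment, from inverse-variance-weighted replicate averages, with the logarithm in base 2.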

Row | Variant | polymerase ribozyme fitness (log ratio)
1 | GGAUCUUCUCGAUCUAACAAAAAAGACAAAUCUGCCACAAAGCUUGAGAGCAUCUUCGGAUGCAGAGGUGGCAGCCUUCGGUGGCUCGAUAGCGCCAACGUUCUCAACUAUGAUACGCAAAACGCGUGCUCCGUUGAAUGUAGUUUAUCAUG [C69U G86U C114U G141U] | ≤ -4.2
2 | GGAUCUUCUCGAUCUAACAAAAAAGACAAAUCUGCCACAAAGCUUGAGAGCAUCUUCGGAUGCAGAGGAGGCAGCCUUCGGUGGCGCGAUAGUGCCAACGUGCUCAACUAUGUCACUCAAAACGCGUGCUCCGUUGAAUGGAGUUAAUUAUG [C69A C93U U102G A113U G117U U146A C149U] | ≤ -4.2
3 | GGAUCUUCUCGAUCUAACAAAAAAGACAAAUCUGCCACAAAGCUUGAGAGCAUCUUCGGAUGCAGAGGUGGCAGCCUUCGGUGGCGCGAUAGCGCAAACGUUCUCAACUAUGACACGCAAAACGCGUGCUCCGUUGAAUGGAGUUUAUCAUG [C69U C96A] | -1.12
4 | GGAUCUUCUCGAUCUAACAAAAAAGACAAAUCUGCCACAAAGCUUGAGAGCAUCUUCGGAUGCAGAGGUGGCAGCCUUCGGUGGGGCGAUAGCGCCAACGUUCUCAACUAUGACACGCAAAACGCGUGCUCCGUUGAAUGGAGUUUAUUAUG [C69U C85G C149U] | -2.74
5 | GGAUCUUCUCGAUCUAACAAAAAAGACAAAUCUGCCACAAAGCUUGAGAGCAUCUUCGGAUGCAGAGGUGGCAGCCUUCGGUGGCGUGAUACCGCCAACGUUCUCAACUAUGACACGCAAAACGCGUGCUCCGUUGAAUGGAGUUUAUCGUG [C69U C87U G92C A150G] | -3.27
6 | GGAUCUUCUCGAUCUAACAAAAAAGACAAAUCUGCCACAAAGCUUGAGAGCAUCUUCGGAUGCAGAGGAGGCAGCCUUCGGGGGCGCGAUAGCGCCAACGUUCUCAACUAUGACACGCAAAACGCGUGCUCCGUUGAAUGGAGUUUAUCAUG [C69A U82G] | -1.91
7 | GGAUCUUCUCGAUCUAACAAAAAAGACAAAUCUGCCACAAAGCUUGAGAGCAUCUUCGGAUGCAGAGGACGCAGCCUUCGGUGGCGCGAUAGCGCCAACGUUCUCGACUAUGACACGCAAAACGCGUGCUUCGUUGCAUGGAGUUUAUCAUG [C69A G70C A106G C131U A137C] | ≤ -4.2
8 | GGAUCUUCUCGAUCUAACAAAAAAGACAAAUCUGCCACAAAGCUUGAGAGCAUCUUCGGAUGCAGAGGGGGCAGCCUUCGGUGGCGCGAUAGCGCCAACGUUCUCAACUAUGACACGCAAUACGCGUGCUCCGUUGAAUGGAGUUUAUCAUG [C69G A121U] | -2.04
9 | GGAUCUUCUCGAUCUAACAAAAAAGACAAAUCUGCCACAAAGCUUGAGAGCAUCUUCGGAUGCAGAGGUGGCAGCGUUCGGUGGCGCGAUAGCGCCAACGUUCUCAACUAUGACACGCAAAACGCGUGCACCGUUGAAUGGAGUUUAUCAUG [C69U C76G U130A] | ≤ -4.2
10 | GGAUCUUCUCGAUCUAACAAAAAAGACAAAUCUGCCACAAAGCUUGAGAGCAUCUUCGGAUGCAGAGGGGGCAGCCUUCGGUGGCGCGAUAGUGCCAACGUUCUCAACUAUGACACGCAAAACGCGUGCUCCGUUGAAUGGAGUUUAUCAUG [C69G C93U] | -3.1
11 | GGAUCUUCUCGAUCUAACAAAAAAGACAAAUCUGCCACAAAGCUUGAGAGCAUCUUCGGAUGCAGAGGUGGCAGCCUUCGGUAGCGCGAUAGCGCCAACGUUCUCAACUAUGACACGCAAAACGCGUGCUCCGUUGAAUGGAGUUUAUCAUG [C69U G83A] | -3.04
12 | GGAUCUUCUCGAUCUAACAAAAAAGACAAAUCUGCCACAAAGCUUGAGAGCAUCUUCGGAUGCAGAGGUGGCAGCCUUCGGUUGCGCGAUAGCGCCAACGUUCUCAACUAUGACACGCAAAACGCGUGCUCCGUUGAAUGGAGUUUAUCAUG [C69U G83U] | -0.933
13 | GGAUCUUCUCGAUCUAACAAAAAAGACAAAUCUGCCACAAAGCUUGAGAGCAUCUUCGGAUGCAGAGGAGGCAGCCUUCGGUGGCGCGAUAGGGCCAACGUUAUCAACUAUGACACGCAAAACGCGUGCACCGUUGAAUGGAGUUUAUCAUG [C69A C93G C103A U130A] | ≤ -4.2
14 | GGAUCUUCUCGAUCUAACAAAAAAGACAAAUCUGCCACAAAGCUUGAGAGCAUCUUCGGAUGCAGAGGACGCAGCCUUCGGUGGCGCGAUAGCGCCAACGUUCUCAACUAUGACACGCAAAACGCGUGCUCCGUUGAAUGGAGUUUAUCAUG [C69A G70C] | -3.18
15 | GGAUCUUCUCGAUCUAACAAAAAAGACAAAUCUGCCACAAAGCUUGAGAGCAUCUUCGGAUGCAGAGGGGGCAGCCUUCGGUGGCGCGAUAGCGCUAACGUUAUCAACUAUGACACGCAAAACGCGUGCUCCGUUGAAUGGAGUUUAUCAUG [C69G C96U C103A] | -3.44
16 | GGAUCUUCUCGAUCUAACAAAAAAGACAAAUCUGCCACAAAGCUUGAGAGCAUCUUCGGAUGCAGAGGUGGCAGCCUUCGGUGGUGCGAUAGCGCCAACGUUCUCAACUAUGACACGCAAAACGCGGGCUCCGUUGAAUGGAGUUUAUCAUG [C69U C85U U127G] | -3.4
17 | GGAUCUUCUCGAUCUAACAAAAAAGACAAAUCUGCCACAAAGCUUGAGAGCAUCUUCGGAUGCAGAGGAGGCAGCCUUCGGUGGCGCGAUAUCGCCAACGUUCUCAACUAUGACACGCAAAACGCGUGCUCCGUUGAAUGGAGUUUAUCAUG [C69A G92U] | -1.15
18 | GGAUCUUCUCGAUCUAACAAAAAAGACAAAUCUGCCACAAAGCUUGAGAGCAUCUUCGGAUGCAGAGGUGGCAGCCUUCGGUGGCGAGAUAGCGCCAACGUUCUCAACUAUGACACGCAAAACGCGUGCUCCGUUGAAUGGAGUUUAUCAUG [C69U C87A] | ≤ -4.2
19 | GGAUCUUCUCGAUCUAACAAAAAAGACAAAUCUGCCACAAAGCUUGAGAGCAUCUUCGGAUGCAGAGGAGGCAGCCUUCGGUGGUGCGAUAGCGCCAACGUUCUCAACUAUGACACGCAAAAAGCGUGCUCCGUUGAAUGGAGUUUAUCAUG [C69A C85U C123A] | -2.37

Row | Variant | polymerase ribozyme fitness (log ratio)
20 | GGAUCUUCUCGAUCUAACAAAAAAGACAAAUCUGCCACAAAGCUUGAGAGCAUCUUCGGAUGCAGAGGGGGCAGGCUUCGGUGGCGCGAUAGCGCCAACGUUCUCAACUAUGACACGCAAAACGCGUGCUCCGUUGAAUGGAGUUUAUCAUG [C69G C75G] | -2.12
21 | GGAUCUUCUCGAUCUAACAAAAAAGACAAAUCUGCCACAAAGCUUGAGAGCAUCUUCGGAUGCAGAGGUGGCAGCCUUCGGUGGCGCGAUAGUGCCAACGUUCUCAACUAUGACACGCAAAACGCGUGCUCCGUUGAAUGGAGUUUAUCAUG [C69U C93U] | -2.33
22 | GGAUCUUCUCGAUCUAACAAAAAAGACAAAUCUGCCACAAAGCUUGAGAGCAUCUUCGGAUGCAGAGGCAGCGGCCUUUGGUGGCGCCAUAGCGCCAACGUUCUCAACUAUGACACGCAAAACGCGUGCUCCCUUGCAUGGAGUUUAUCAUG [G70A A73G C79U G88C G133C A137C] | ≤ -4.2
23 | GGAUCUUCUCGAUCUAACAAAAAAGACAAAUCUGCCACAAAGCUUGAGAGCAUCUUCGGAUGCAGAGGGGGCAGCCUUCGGUGGCGCGUUAGCGCCAACGUUCUCAACUAUGACACGCAAAACGCGUGCUCCGUUGAAUGGAGUUUAUCAUG [C69G A89U] | -1.45
24 | GGAUCUUCUCGAUCUAACAAAAAAGACAAAUCUGCCACAAAGCUUGAGAGCAUCUUCGGAUGCAGAGGCAGCAGUCUUCGGUGGCGGGAUAGCGCCAAGGUUAUCAACUAUGACACGCAAAACGCGUGCUCCGUUGAAUUGAGGUGAUCAUG [G70A C75U C87G C99G C103A G140U U144G U146G] | ≤ -4.2
25 | GGAUCUUCUCGAUCUAACAAAAAAGACAAAUCUGCCACAAAGCUUGAGAGCAUCUUCGGAUGCAGAGGGGGCAGCCUUCGGUGACGCGAUAGCGCCAACGCUCUCAACUAUGACACGCAAAACGCGUGCUCCGUUGAAUGGAGUUUAUCAUG [C69G G84A U101C] | -2.05
26 | GGAUCUUCUCGAUCUAACAAAAAAGACAAAUCUGCCACAAAGCUUGAGAGCAUCUUCGGAUGCAGAGGGGGCAGCCUUCGGUCGCGCGAUAGCGCCAACGUUCUCAACUAUGACACGCAAAACGCGUGCUCCGUUGAAUGGAGUUUAUCAUG [C69G G83C] | -4.05
27 | GGAUCUUCUCGAUCUAACAAAAAAGACAAAUCUGCCACAAAGCUUGAGAGCAUCUUCGGAUGCAGAGGUGGCAGCCUUCGGUGGCGCGAUAGCGCCAACGUUCUCAACUAUGACACGCAAAACGCGUGCUCCGUUUAAUGGAGUUCAUCAUG [C69U G136U U146C] | -2.94
28 | GGAUCUUCUCGAUCUAACAAAAAAGACAAAUCUGCCACAAAGCUUGAGAGCAUCUUCGGAUGCAGAGGGGGCAGCCUUCGGUGGCGAGAUAGCGCCAACGUUCUCAACUAUGACACGCAAAACGCGUGCUCCGUUGAAUGGAGUUUAUCAUG [C69G C87A] | ≤ -4.2
29 | GGAUCUUCUCGAUCUAACAAAAAAGACAAAUCUGCCACAAAGCUUGAGAGCAUCUUCGGAUGCAGAGGUGGCAGCCUUCGGUGACGCGAUAGCGCCAACGUUCUCAACUAUGACGCUCAAAACGCGUGCUCCGUUCAAUGGAGUUUAUCAUG [C69U G84A A115G G117U G136C] | ≤ -4.2
30 | GGAUCUUCUCGAUCUAACAAAAAAGACAAAUCUGCCACAAAGCUUGAGAGCAUCUUCGGAUGCAGAGGUGGCAGCCUUCGGUGGCGCGAUAGCGCCAACGUUCUCAACUAUGACAUGCAAAACGCGUGCUCCGUAUAAUGGAGUUUAUCAUG [C69U C116U U135A G136U] | -4.18
31 | GGAUCUUCUCGAUCUAACAAAAAAGACAAAUCUGCCACAAAGCUUGAGAGCAUCUUCGGAUGCAGAGGGGGCAGCAUUCGGUGGCGCGAUAGCGCCAACGUUCUCAACUAUGACACGCAAAACGCGUGCUCCGUUGAAUGGAGUUUAUCAUU [C69G C76A G152U] | -4.17
32 | GGAUCUUCUCGAUCUAACAAAAAAGACAAAUCUGCCACAAAGCUUGAGAGCAUCUUCGGAUGCAGAGGGGGCAGCCUUCGGUGGCGCGAUAGCACCAACGUUCUCAACUAUGACACGCAAAACGCGUGCUCCGUUGAAUGGAGUUUAUCAUG [C69G G94A] | -1.15
33 | GGAUCUUCUCGAUCUAACAAAAAAGACAAAUCUGCCACAAAGCUUGAGAGCAUCUUCGGAUGCAGAGGUGGCAGCCUUCGUUGGCGCGAUAGCGCCAACGUUCUCAACUAUGACACGCAAAACGCGUGCUCCGUUGAAUGGAGUUUAUCAUG [C69U G81U] | -2.07
34 | GGAUCUUCUCGAUCUAACAAAAAAGACAAAUCUGCCACAAAGCUUGAGAGCAUCUUCGGAUGCAGAGGGGGCAGCCUUCGGUGUCGCGUUAGCGCCAACGUUCUCAACUAUGACACGCAAACCGCGUGCUCCGUUGAAUGGAGUUCAUCAUG [C69G G84U A89U A122C U146C] | -2.82
35 | GGAUCUUCUCGAUCUAACAAAAAAGACAAAUCUGCCACAAAGCUUGAGAGCAUCUUCGGAUGCAGAGGUGGCUGCCUUCGGUGGCGCGAUAGCGCCAACGUUCUCAACUAUGACACGCAAAACGCGUGCUCCGUUGAAUGGAGUUUAUCAUG [C69U A73U] | -2.64
36 | GGAUCUUCUCGAUCUAACAAAAAAGACAAAUCUGCCACAAAGCUUGAGAGCAUCUUCGGAUGCAGAGGGGGCAGCCUUCGGUGGCGCGAUAGCGCUAACGUUCUCAACUAUGACACGCAAAACGCGUGCUCCGUUGAAUGGCGUUUAUCAUG [C69G C96U A142C] | -2.43
37 | GGAUCUUCUCGAUCUAACAAAAAAGACAAAUCUGCCACAAAGCUUGAGAGCAUCUUCGGAUGCAGAGGUGGCAGCCUUCGGUGGCGCGAUAGCGCCAUCGUUCUCAACUAUGACACGCAAAACGCGUGCUCCGUUGAAUGGAGUUUAUCAUG [C69U A98U] | -1.15
38 | GGAUCUUCUCGAUCUAACAAAAAAGACAAAUCUGCCACAAAGCUUGAGAGCAUCUUCGGAUGCAGAGGUGGCAGCCUUCGGUGGUGCGAUAGCGCCAACGUUCUCAACUAUGACACGCAAAACGCGUGCUCCGUUGAAUGGAGUUUAUCAUG [C69U C85U] | -1.39
